Patent publication US20260159594A1 (UNIVERSITY OF TOKYO, published 2026)

Target: T1, human IL13RA2 (human, UniProt Q14627 27-380)
T1 construct: also called interleukin 13 receptor subunit alpha 2; 13R2
T1 sequence: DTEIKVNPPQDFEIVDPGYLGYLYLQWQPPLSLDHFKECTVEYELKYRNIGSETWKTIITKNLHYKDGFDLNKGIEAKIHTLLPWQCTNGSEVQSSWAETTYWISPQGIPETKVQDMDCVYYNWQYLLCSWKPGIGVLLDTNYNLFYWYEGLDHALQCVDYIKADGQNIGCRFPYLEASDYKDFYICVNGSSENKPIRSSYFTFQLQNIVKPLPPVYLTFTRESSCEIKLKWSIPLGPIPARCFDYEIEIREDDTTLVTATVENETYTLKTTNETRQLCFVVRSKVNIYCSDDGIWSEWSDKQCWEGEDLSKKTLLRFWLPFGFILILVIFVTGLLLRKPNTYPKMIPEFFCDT
Test: flow cytometry on U87(+), H1299(+) and RPMI7951 cells; Alexa Fluor 488-labeled anti-mouse IgG secondary antibody
Description: Flow cytometry analysis was carried out using LSRFortessa (BD Biosciences).

B1: 4E6 antibody (antibody, V domains shown)
VH: EVKLEESGPGLVAPSQSLSIACTVSGFSLTRHGIHWVRQPPGKNLEWLGVIWAGGSTNYNSALMSRLSIIKDNSKSQVFLKMNSLQTVDTAMYYCARDHFDSFDYWGQGTTLTVSS
VL: DIVLTQTPAIMSASLGERVTMTCTASSSVSSSYLHWYQQKPGSSPKLWIYSTSNLASGVPLRFSGSGSGTSYSLTISSMEAEDAATYYCHQYHRSPLTFGAGTKLELKR
notes: also called anti-IL13RA2 antibody; antibody produced by hybridoma NITE BP-03673
  binding result: binds
